# Measurements: patent US20210008207A1 (TECHNISCHE UNIVERSIT T M NCHEN, published 2021)
# T1: recombinant human CEACAM1 N-domain (C1ND; residues 35-142) with C-terminal Strep-Tag II, made in Expi293 cells (human, UniProt P13688 35-142, N-glycosylated (three glycosylation forms beside the non-glycosylated protein))
# T1 construct: range 35-142; also called N-terminal domain of human CEACAM1; huCEACAM1-ND; not shown: C-terminal Strep-Tag II
# T1 sequence: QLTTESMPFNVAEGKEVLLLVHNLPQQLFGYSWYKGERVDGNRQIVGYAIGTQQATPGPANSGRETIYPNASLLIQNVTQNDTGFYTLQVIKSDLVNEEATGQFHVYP
# T2: E. coli expressed human CEACAM1 N-domain (Ec-C1ND) with C-terminal His6 tag, non-glycosylated (human, UniProt P13688 35-142)
# T2 construct: range 35-142; also called non-glycosylated N-terminal domain of human CEACAM1; hC1ND
# T2 sequence: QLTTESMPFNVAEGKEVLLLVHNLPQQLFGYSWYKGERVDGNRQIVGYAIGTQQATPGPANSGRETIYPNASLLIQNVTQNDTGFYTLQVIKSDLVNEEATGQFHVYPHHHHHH
# T3: CEACAM8 (human (species not restated for this …, UniProt P31997))
# T3 sequence: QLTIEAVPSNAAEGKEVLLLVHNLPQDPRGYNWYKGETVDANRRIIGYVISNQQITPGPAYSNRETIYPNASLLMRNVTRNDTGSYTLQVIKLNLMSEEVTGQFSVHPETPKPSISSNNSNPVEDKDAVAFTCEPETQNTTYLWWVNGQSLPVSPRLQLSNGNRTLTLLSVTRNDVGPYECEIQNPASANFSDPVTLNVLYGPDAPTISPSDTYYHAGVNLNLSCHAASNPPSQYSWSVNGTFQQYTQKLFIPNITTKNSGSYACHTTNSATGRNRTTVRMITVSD
# T4: CEACAM5 (human (species not restated for this …, UniProt P06731))
# T4 sequence: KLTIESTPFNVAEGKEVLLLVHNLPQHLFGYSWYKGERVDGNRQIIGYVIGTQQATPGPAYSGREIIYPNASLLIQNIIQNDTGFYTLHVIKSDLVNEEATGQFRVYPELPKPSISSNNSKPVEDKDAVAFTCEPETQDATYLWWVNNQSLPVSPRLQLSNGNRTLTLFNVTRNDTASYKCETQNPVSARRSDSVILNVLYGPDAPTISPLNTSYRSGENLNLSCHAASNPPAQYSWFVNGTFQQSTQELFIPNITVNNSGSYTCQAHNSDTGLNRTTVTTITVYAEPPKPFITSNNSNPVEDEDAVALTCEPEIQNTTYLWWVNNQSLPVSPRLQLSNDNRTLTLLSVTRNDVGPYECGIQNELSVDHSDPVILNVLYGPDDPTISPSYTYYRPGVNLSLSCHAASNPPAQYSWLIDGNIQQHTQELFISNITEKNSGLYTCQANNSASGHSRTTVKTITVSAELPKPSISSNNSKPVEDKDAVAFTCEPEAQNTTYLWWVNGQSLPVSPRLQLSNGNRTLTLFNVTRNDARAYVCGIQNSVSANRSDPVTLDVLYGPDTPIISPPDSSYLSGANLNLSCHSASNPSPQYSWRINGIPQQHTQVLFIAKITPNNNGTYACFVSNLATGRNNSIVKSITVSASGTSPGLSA
# Experiments:
# [1] = biological target: T1, recombinant human CEACAM1 N-domain …; assay: ELISA; C1ND coated, HopQ fragment titrated, α-6×His-HRP detection
# [2] = biological target: T1, recombinant human CEACAM1 N-domain …; assay: ITC; 25 µM C1ND in the cell titrated with 250 µM HopQ^AD, 25 °C
# [3] = biological target: T2, E. coli expressed human CEACAM1 …; assay: ITC; 25 µM Ec-C1ND in the cell titrated with 250 µM HopQ^AD, 25 °C
# CEACAM8 = biological target: T3, CEACAM8; assay: ELISA, panel CEACAM8; protein titrated [cont.) f]
# CEACAM5 = biological target: T4, CEACAM5; assay: ELISA, panel CEACAM5; HopQ fragment titrated [cont.) f]
# [4] = biological target: T1, recombinant human CEACAM1 N-domain …; assay: isothermal titration calorimetry, 25 °C; ITC in solution, folded glycosylated C1ND; stoichiometry, not affinity
# [5] = biological target: T1, recombinant human CEACAM1 N-domain …; assay: isothermal titration calorimetry, 25 °C; ITC in solution, folded glycosylated C1ND (FIG. 8a)
# [6] = biological target: T1, recombinant human CEACAM1 N-domain …; assay: ELISA, C1ND coated, His-tag detected
Binder,EC50 (read off the curve) [1],ΔH [2],ΔS [2],Kd [3],ΔH [3],ΔS [3],binding result (CEACAM8),EC50 (read off the curve) (CEACAM5),stoichiometry [4],Kd [5],fold reduction of binding affinity against HopQ^AD [6]
"HopQ adhesin domain (HopQ^AD), type I HopQ fragment of H. pylori strain G27, residues 37-463 (residu (other, also called HopQ^AD I) AVQKVKNADKVQKLSDTYEQLSRLLTNDNGTNSKTSAQAINQAVNNLNERAKTLAGGTTNSPAYQATLLALRSVLGLWNSMGYAVICGGYTKSPGENNQKDFHYTDENGNGTTINCGGSTNSNGTHSYNGTNTLKADKNVSLSIEQYEKIHEAYQILSKALKQAGLAPLNSKGEKLEAHVTTSKYQQDNQTKTTTSVIDTTNDAQNLLTQAQTIVNTLKDYCPILIAKSSSSNGGTNNANTPSWQTAGGGKNSCATFGAEFSAASDMINNAQKIVQETQQLSANQPKNITQPHNLNLNSPSSLTALAQKMLKNAQSQAEILKLANQVESDFNKLSSGHLKDYIGKCDASAISSANMTMQNQKNNWGNGCAGVEETQSLLKTSAADFNNQTPQINQAQNLANTLIQELGNNPFRNMGMIASSTTNNGAHHHHHH",~0.2 µg/well,-13 kcal/mol,-13.7 cal/mol/deg,417 nM,-16.7 kcal/mol,-26.8 cal/mol/deg,no binding (tested: 10 µg/well),~0.04 µg/well,1 HopQ^AD per C1ND,296 nM,
"HopQ^ADΔID, HopQ^AD in which amino acids 190-218 of the mature protein (the HopQ insertion domain) are replaced by two glycines (other, also called HopQ-ID deletion mutant; mutant HopQ^AD lacking the HopQ-ID) AVQKVKNADKVQKLSDTYEQLSRLLTNDNGTNSKTSAQAINQAVNNLNERAKTLAGGTTNSPAYQATLLALRSVLGLWNSMGYAVICGGYTKSPGENNQKDFHYTDENGNGTTINCGGSTNSNGTHSYNGTNTLKADKNVSLSIEQYEKIHEAYQILSKALKQAGLAPLNSKGGGDAQNLLTQAQTIVNTLKDYCPILIAKSSSSNGGTNNANTPSWQTAGGGKNSCATFGAEFSAASDMINNAQKIVQETQQLSANQPKNITQPHNLNLNSPSSLTALAQKMLKNAQSQAEILKLANQVESDFNKLSSGHLKDYIGKCDASAISSANMTMQNQKNNWGNGCAGVEETQSLLKTSAADFNNQTPQINQAQNLANTLIQELGNNPFRNMGMIASSTTNNGAHHHHHH",,,,,,,no binding (tested: 10 µg/well),~0.08 µg/well,,,~10 fold
